Laboratory results from the domain aggregation screens of Martell et al. (2025).

Test: soluble fraction after stress (log2 fold change); higher = more stays soluble; pooled small domains, quantitative proteomics
Settings: stress: pH 4
In short: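 Small protein domains from pooled custom libraries were exposed to pH 4, then quantified with high-throughput quantitative proteomics. The fold change in how much of each domain remains soluble is read as aggregation propensity. It is given as log2, with higher values meaning more stayed soluble.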

Sequence	soluble fraction (log2)
HMPEPLTARETEVLRLLSGGYSNREIAAAMFLAEGTIKNHVSAVLLKLGVRDRTRAVLRGLELGLIQ	-1.4
HMHKLTSRQEEILQFIKDYLSEIGYPPTRSEIAQKMGFRSTNAAEEHLRALARKGAIEILPGPSRGLRLP	-0.393
HMQPSFFEMIRMVESYIKQHFENVGNEFPEIARAIYYGIEEERNIYGTASREDMEELLDEGIPILPVP	-0.937
HMSPEVEEISIDHLKAGMRILSDLRLPNGTLVAPKGSVVDAHFIKIVENYVISYFGNPFPDRIKVIM	0.144
HMFEKIDINFADIHQLKGLPLNSEQINSIIEYRNQNGFIENIYDLKNVNGISIDKVHELKSYIFIIDV	-1.96
HMQMMDATLKIPPSMGKLRGTLYELNSVTSEDVDENGQLALHVRLSSVDWQRLKKRFDSNLDELIVQKN	-0.427
HMRKGDDRLRAQVDEYISKQGNNTFNYKQVAHAINATSPISQRAVALYLAELAFDGDLLETAPGRYKSPSR	0.191
HMATHGRRAVIELREKIVSGELPGGTRLFEVSLAETLDISRTPVREALSRLAEEGLLDRLPNGGFVVRR	-1.39
HMQVSDAAQLAEVVKTVLAENPAAVGDYRKGKKAAIGFLLGQVMRHMRGTANPAVARQLLEQALEDE	0.231
HMTTRLLTPRQRQVFDIAIREGFYDSPRRISLTELADLLGVAKSTLSVQLQRVESTIVHTFSEEIRRRS	-0.176
HMWNTADDIKEAIWKLIQSEDPKKPYSDLKISQLLLEKEMKISRRTVAKYRKEMGILGTYSRK	0.23
HMNNIPFIITDERLNVIQSHLVPREVLDHPDRLRRQIDRFTEENQPKTVNYWWGPEHRHIIFYGKSK	0.281
HMVAGHLSEKKGYYYAVLNYKDYTGKRKSKWVSTGLPVKGNKRRAEKILADIKRDFVPEEPKR	-0.0527
HMKSLDDVISKFRPTGSENKIDFRKRVISEIHAQGFFKIKGSVNHVAKALGVTRYTVYNYLDKLND	≥ 0.43
HMRTDTIINSGGLKINPEEVENEILKSLGDNNFFIDKIKNDKFGEEIILIALKKIKINLLIESLNLI	-0.286
HMDQNDYMLTRIRNGQMRNKVSVSMPASKIKSAIAAVLKDEGYIENFALNDSSGKPSLIVNLKYYAGQPV	-0.0771
HMNEKLNEYLNQVKAYLNTSDNKEDIIKELEAVVLEKAEKKYGQITDESISKILSEFGSPAEVAKEYS	-0.103
HMDIEELLSRSTDRLSRQTEIRRLLADAQGRPNISSLARRFKVARRTVIRDLQELIRRGEVPPEIYPK	-0.0624
HMPRSLGADLRAIRKGRRLTLTDMAEALDRSVGWVSQVERDISTPSISDLRRMAEILDVPVSLLFG	-1.59
HMRDQAIDIYKTVHSVAEPYKEVFLLRVLGELSFKEISHIFGKSESWAKVTFFRAKIKVVEKREES	-1.04
HMNSKKETLLSYLYNHSTWSSRNDLSNFLNVSTRQVTNYINEINKNETIVLSSNKGYKINPKFIGKN	0.22
HMADGKWTLTDAGYTFTYSDGRKARGTWEDIDGEWYHFDRNGIMETGWKTVGNIRYHFNQDGSL	-0.363
HMKPSKYTLAIDSIPVHVTRKQMKSIRLRVTPLGEVRVSAPYGVKDSEIVEMVRSRKLWIESQQRA	-0.0235
HMKNLHLVPNVVGMSAKEAKNTLKSFNIKYKPIYGSSNKYDENYIFNQNPRKGKTIKEQEVVTIYISRGAD	≥ 0.43
HMDRKEEIIIVTLKLASQIGLSNVSMEQIAKQVGIKKPSLYNHFKSKDEIIDAMYEYLREKSKN	-1.16
HMNELPSVIIMKNGRTRPYELQEISKDEEWLNQTIREHGIEPKDIFIAEFWDGRTAFILNDGRIVK	-1.14

Sequence	soluble fraction (log2)
HMVDKSYIHNQQVASDTWTVQHNLGKYPAVSVADTGNNEVYGDVRHINENTVELKFSHPFSGVAFF	-0.0737
HMNEKFNVYPIPVYNNLNITGLSKPVTYLISSIDGKTIKNGVFQESIDVSDLKSGLYFLQVETKDPVKFIK	-0.999
HMSSKYLKIYNDIVGKIDSGIFEANTKLPSESQLMDEYNVSRYTVRKSLNLLEQNGYIEKSKGKGSFVLDM	-0.1
HMLRLLEIIAGNEVSKEINSQVIKYYKALKNKKIEEINNLTPSYNKLIISFDLKKKNFREMKKIIEDISIN	-0.436
HMPRKLDDQLQEQIRYLKSNYPRMSAAGIFRQLQDNGSIKHGDVSESTINRYVNLLSIEMKTTT	0.149
HMKADTSPEAQKKIIAAFEPYSVNKDQIEKLIQRRIDSITPAQVIRLRKILASLKDGMSSPEDWFE	0.076
HMSLNIIEITAKKEINELKSFNIIYFNFDKNNSIYEYKISEREKKEILEIEKIIKNSDNVTNYEIRYSF	-0.685
HMGLQEADKQDRIARMKELISFLNEAAKAYYQEGREIVSNLEYDKAYDALLSLEKESGVVLSGSPSQNVG	-0.659
HMGQGEISVPRLEGLSLRETSELLGLFGLRLEAAGSGIALSQNPPAGARVKAGDVIQVDFGEPGN	0.0931
HMKKYEFIEDLPGVGPATAQKLRDLGYHTVESLAMATARELEPIGVGEKKAFSMIEAARSAIGFS	0.00186
HMREELIALYRAIARLSEDEQELLNLFYFARRPLSEIAQLTGMTPGAAKTRLYRARRHLRREMEEDGYG	-0.653
HMVPDVVGKDYALAQAELEGANLVVAKGSSRYDDTLPAGVVLATDPKVGTVVKPGAKVTVILSK	0.268
HMNPVVATTIILDGEIIKDNLAEANLSEEWLLEELKRQNFNDVKEVFYAEWLDGKQLFAYPYTK	-0.789
HMSSWEEQLKIWAKNELASGNTDILARATVSFEQILIEAALTHTGGRKKTAAELLGWGRNTLTRKIKELHI	-0.743
HMLWTHIALPVRSLDDTMAFYDKYTTLENIHERQDPETNMRSVWLANPGDKTEQAARFVLVLI	-0.126
HMLDLPVKTINGKQYYYYTVKKGDTVYSLITRFGITRSDLVESNPAAADVLKTGDTLYFAVDKFG	0.0813
HMKKIYEEVSEAILTMIKNGTLKPGDKLLPVHQLAEQFQVGRSAVREALSALRAMGLIEMKQGEGTYVKNF	-0.6
HMINFKVKNVQDVGSRLDKFLVTNIPEFSRSKIQKHIKNGKVMVNGLLKKTGYKLEINDEINILNN	0.198
HMQKNFYQILGVDSKASPATINAAYERAKSRVIQSGLEDPDTMALLRDAWETLADPGDRAAYDESLAT	-0.0938
HMEGLESVVPDLRGKSLKSAAIAAGLSGFALSPEGSGIVYKQSPAPGGRYLKGTLIAVWLRT	0.22
HMLEDDTVNTAEGIKIGDSFAAVTKAYGTDYVAAGNTYAYSKDKMTLTFVMNNDKVSTISYSLLTS	-0.412
HMQELKWERNYKLVQDYIKQYGVLPSKNTKYANVSIGRWLTNQHELVKEDNLAPERFEKIKELDT	0.303
HMATEVEVPDVVGRQMALATQLLEARKLRVNVAEIYDEKTPPGQVVSQSPEAGSSVKEERVVTIYVSR	0.158
HMFDSYDIYDEAGNTVNTVKGKLSWGHLLEIYDRFDNHIGTVQERVLTFLPKFLMYINGQEIGEIR	-0.334
HMGEGRVRLAQEAANRFMTAMAGDRPGFEEAGRALFAGDRARFHAETEGWPEDIRDHARRLAEPALQ	-0.0593
HMSLGPNAYGKPATALNILRETVMGKELFDHAFKTYSKRWMFKHPSPEDFFRTMEDASAVDLDWFWR	0.22

Sequence	soluble fraction (log2)
HMDYYDTLGVPRNASQSDIKKAYKKQSMQHHPDRTGGDDTKFKDVNEAYQVLSNSEKKQMYDQFGTA	0.0201
HMSYTDIILKMSNVNFLTKVNFTNSEKNKNIKNGNFLIKKGKNRITAAFDYKDNELVISKSNLRNTFL	-1.22
HMERQILFTKEDLIEFGLSGGTDSRKRRDVLGHILGIGYSNSKQFLNRLNNFGVTREEFLSAIERIG	-0.454
HMKKLPEKFDYNEISGLRIEAQQKLNEFQPLNIGQASRISGVTPADISVLLVYLEQLKYSNPDLFFKLNPD	-0.743
HMTSRIHDYWTSPGQPGYAKIGWGTAGDFRRAKALIGEKIAANSPEDMRYLNQIIAQWHFDALGYWPGDH	-1.08
HMVTVPNYSDPRQYVEWGNANGITINRAVGDTIASMSGRVQDVRDSNGNSVIGKKVKKGSTVTVYIYFLK	-0.0785
HMLFKNASGTVVSRIQSQVDGQINIRTGSGNAPDYAFVAKPDGAVELYHNGTKQFETGSSGVLLP	-0.527
HMRQYKEMPYRLFLIHLGKGLVDEVELSDKAKLTGKLKNGKIFITDNPRTENFKEQLLLHDVKVKEG	-0.133
HMAMSAGEVVERIREHVGHPATIKELMRVLAIPNEERYRFRRRIKQLVEAGELIRIRGNRYGLADR	≥ 0.43
HMSAEVEVPDVVGRQVALAVQLIETKKLRVNVAETYDAKVPPGQVISQSPEAGMKVKEERVITIYVSR	0.153
HMDRKARRKYIEQVVNDRKIETQEELLKLLTEAGFETTQATISRDIHALNIVKANDGDGHTHYVQLH	0.0264
HMTKEAIAQKLRIARQESGLTQKDVSAKIGRPQQTIASWEVGRSQPDADTLYSLLLLYKVSPNTFFEYD	-0.237
HMNSEPKTKLQEIAQERGLAAPVYETTHTGPDHDRIFSASVTVGDVVAAGEARSRKGAESEAAIAAIKALG	0.155
HMVFTEEERAEYREKMLDAGFDLLKQYGMTHMSVAKITEAAGIGVSTFYNFFSSKEEYVYEVLQYRRRK	-0.392
HMVTVSAVNITPKGHTTVGFTDRSVNPPSNYYLRVGESADGWTVKDADFDDEIATLEKDGVAITLKL	-0.548
HMVAGQDPVKRQQILDGAKRVFLGVGFDAASMNDITREAGVSKGTIYVYFGSKEELFGALIDR	-0.807
HMNTLLYAPKVSPNPFTPNADGINDVVNISYKLLRVISAVPISVEVFDLSGRLIKTLYSGVDPLGEY	0.425
HMDPLGGFTKGDVDMDGRVAVNDAVMVLKNAIKLMELDTQQLMLADADNDGKITVNDAVMILKKAIKLID	-0.478
HMDSMATVPDLVGKTEDEAKALANDAHLGVQMAGEEASDQEKGKISRQETAAGTQVAEYTTVKYWVSTGTQ	0.154
HMERFLENAIPVLGETGLDIKSATEDFENALIRQALHLSGGNKNRAATLLGLKRTTFVEMLKRKSL	-0.398
HMGIKDRIVYIMEKEKLSIPLFAKKIGIGPSTLLHIIRGKNAPSLQVVQAIHKAYPDIDLNWLI	0.0346
HMSVLRLGNRGPDVRKLQLLLNSTLVPSPQLTVDGDFGKRTEQAVVTFQQMRGLPQDGIVGQRTWALLGQT	0.241
HMNPESRRSELIDAATKLFFSRGYTATSIRDILDAVDDRTASPSVFYYYFESKEAIYQAVLQRYTD	-1.34
HMDGEAQTYVEYGKWFPADLPLEAVRQLADGVPVTKELVAALNPRRSEWEEIKAGLDKIGYPNELL	-0.567
